Response data for three molecules are collected here from publication PMC12700824.

Assay [1] has as its target FAM118B-L32R, full length, tagged with mEGFP or with mCherry, Q9BPY3. The assay is described as follows: FCCS (fluorescence cross-correlation spectroscopy) in living U2OS cells. To be noted: chain shown with the change; mEGFP-F122R (green label) coexpressed with mCherry-L32R (red label); n = 15 cells per condition; read off a plot.
Assay [2] concerns the target FAM118B-F122R, full length, tagged with mEGFP or with mCherry, Q9BPY3. Described as above. The note with it: chain shown with the change, n = 15 cells per condition, read off a plot.

Residue numbers refer to the chain shown, from its start. Numbers in names are those of the source.

B1: mEGFP–FAM118B WT (full-length human FAM118B fused at its N terminus to mEGFP), Q9BPY3 binder:F122R; target:L32R (protein)
chain: MASTGSQASDIDEIFGFFNDGEPPTKKPRKLLPSLKTKKPRELVLVIGTGISAAVAPQVPALKSWKGLIQALLDAAIDFDLLEDEESKKFQKCLHEDKNLVHVAHDLIQKLSPRTSNVRSTRFKDCLYEVFDDLESKMEDSGKQLLQSVLHLMENGALVLTTNFDNLLELYAADQGKQLESLDLTDEKKVLEWAQEKRKLSVLHIHGVYTNPSGIVLHPAGYQNVLRNTEVMREIQKLYENKSFLFLGCGWTVDDTTFQALFLEAVKHKSDLEHFMLVRRGDVDEFKKLRENMLDKGIKVISYGDDYADLPEYFKRLTCEISTRGTSAGMVREGQLNGSSAAHSEIRGCST
Take B1: the response in assay [1] worked out at 88%.

B2: mEGFP–FAM118B WT (full-length human FAM118B fused at its N terminus to mEGFP), Q9BPY3 binder:L32R; target:F122R (protein)
chain: B1 chain with L32R, R122F
For the molecule B2, the response in assay [2] (mEGFP-L32R (green label) coexpressed with mCherry-F122R (red label)) came to 90%.

B3: mEGFP–FAM118B WT (full-length human FAM118B fused at its N terminus to mEGFP), Q9BPY3 binder:F122R; target:F122R (protein)
chain: B1 chain
As to B3, in assay [2] (mEGFP-F122R (green label) coexpressed with mCherry-F122R (red label)), the response was 6%.
